Data set [1] addresses T1, LARP6 (ITC) (UniProt Q9BRS8 70-295).
T1 sequence: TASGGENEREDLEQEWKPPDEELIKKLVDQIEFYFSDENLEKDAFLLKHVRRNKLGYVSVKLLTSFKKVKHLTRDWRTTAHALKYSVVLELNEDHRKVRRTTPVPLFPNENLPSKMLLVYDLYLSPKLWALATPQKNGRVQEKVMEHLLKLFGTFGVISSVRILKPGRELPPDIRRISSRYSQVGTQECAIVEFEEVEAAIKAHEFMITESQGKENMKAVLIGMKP
The data set is described as follows: ITC.

For data set [2], the target named is T2, LARP6 (70-295) (UniProt Q9BRS8 70-295).
T2 sequence: T1 sequence
In words: TR-FRET competition.

For data set [3], the target named is T2, LARP6 (70-295). In words: TR-FRET competition. This is another data set of the same source.
Data set [4] addresses T1, LARP6 (ITC). In words: ITC. This is another data set of the same source.
Data set [5] addresses T1, LARP6 (ITC). In words: ITC. This is another data set of the same source.
Data set [6] deals with T2, LARP6 (70-295). The data set is described as follows: TR-FRET competition. The source holds these as a separate data set.

Among the data in paper doi:10.1101/2025.01.16.633226 are binding result, IC50 and Kd values, retold here.

Like-named read-outs stand apart in the source and are kept apart here. Where only a bound is given, the exact number is not on record here.

B1: LRP1-CDS (ssRNA)
RNA: CUGCAUGUGCACAGCCGGCUAUAGCCUCCGGAGUGGCCAGCAGGCCUGCGAGGGCGUAGG
In the case of B1, the binding result in data set [1] and in data set [2] was “binds” in each case.

As to CCACAAAGAGUCUACAUGUCUAGGGUCUAGACAUGUUCAGCUUUGUGG (structured_RNA) [A1 (COL1A1 5'SL)], the IC50 in data set [3] stood at 6.84 nM. In data set [4], the Kd is greater than 400 nM.

B2: COL1A1-TIS (structured_RNA)
RNA: CCAGCCACAAAGAGUCUACAUGUCUAGGGUCUAGACAUGUUCAGCUUUGUGGACCUCCGG
In turn, B2 returned a Kd in data set [5] of 400 nM. This molecule yielded a concentration for half-maximal inhibition (IC50) in data set [3] of 2.71 nM.

B3: CCNI-5'UTR (ssRNA)
RNA: GGGUCAUCAUGGAACUAAUUCGCUGACCGACCCAGCGGCCGCAGCCGUGCGUCCCGCUCG
Regarding B3, the binding result in data set [5] and in data set [6] was “no binding” each time.

B4: COL5A1-CDS (ssRNA)
RNA: CUGCUGCUGCUGCUGUGGGCGCCGCCUCCGAGCCGCGCAGCUCAGCCAGCAGAUCUCCUG
On to B4, for which the binding result in data set [1] and in data set [2] was “binds” each time.
